# Laboratory results published in patent US20260125472A1 (HEFEI TG IMMUNOPHARMA, published 2026).
# Numbering of substitutions follows the chain as printed. Where two headings read alike, the source gives them in different places.
# B1: Cross323 (antibody, human IgG1, kappa, V domains shown)
# VH: EVQLLESGGGLVQPGGSLKLSCAASGFTFNTYAMNWVRQAPGKGLEWVARIRSKYNNYATYYADSVKDRFTISRDDSKNTAYLQMNNLKTEDTAVYYCVRHGNFGNSYVSWFAYWGQGTLVTVSS
# VL: ELVVTQEPSLTVSPGGTVTLTCRSSTGAVTTSNYANWVQQKPGQAPRGLIGGTNKRAPGTPARFSGSLLGGKAALTLSGVQPEDEAEYYCALWYPNLWVFGGGTKLTVLR
# B2: Cross326 (antibody, human IgG1, kappa, V domains shown)
# VH: B1 VH
# VL: B1 VL with P95S, L97P
# B3: Cross325 (antibody, human IgG1, kappa, V domains shown)
# VH: B1 VH
# VL: B1 VL with P95S, L97D
# B4: Cross313×PDL1 (bispecific antibody, human IgG1, kappa, L234A L235A)
# scFv: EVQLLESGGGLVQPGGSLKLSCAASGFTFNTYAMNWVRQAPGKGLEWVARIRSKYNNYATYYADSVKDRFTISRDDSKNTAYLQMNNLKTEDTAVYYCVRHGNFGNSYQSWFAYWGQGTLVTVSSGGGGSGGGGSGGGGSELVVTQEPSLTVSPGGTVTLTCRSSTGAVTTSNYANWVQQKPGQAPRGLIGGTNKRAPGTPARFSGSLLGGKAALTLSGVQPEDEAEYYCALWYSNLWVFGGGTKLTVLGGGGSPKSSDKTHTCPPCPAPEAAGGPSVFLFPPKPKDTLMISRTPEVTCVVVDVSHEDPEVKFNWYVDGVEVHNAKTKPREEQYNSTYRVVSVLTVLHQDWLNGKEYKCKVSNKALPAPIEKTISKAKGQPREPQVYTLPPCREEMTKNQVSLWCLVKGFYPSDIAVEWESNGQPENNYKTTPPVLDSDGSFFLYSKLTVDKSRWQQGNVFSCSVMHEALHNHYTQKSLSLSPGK
# heavy: QVQLVQSGAEVKKPGASVKVSCKASGYSFTGYYMHWVRQAPGQGLEWIGRINPYNGATTYSQNFKDRATMTVDTSISTAYMELSRLRSDDTAVYYCVPTGMGYFLMDYWGQGTLVTVSSASTKGPSVFPLAPSSKSTSGGTAALGCLVKDYFPEPVTVSWNSGALTSGVHTFPAVLQSSGLYSLSSVVTVPSSSLGTQTYICNVNHKPSNTKVDKKVEPKSCDKTHTCPPCPAPEAAGGPSVFLFPPKPKDTLMISRTPEVTCVVVDVSHEDPEVKFNWYVDGVEVHNAKTKPREEQYNSTYRVVSVLTVLHQDWLNGKEYKCKVSNKALPAPIEKTISKAKGQPREPQVCTLPPSREEMTKNQVSLSCAVKGFYPSDIAVEWESNGQPENNYKTTPPVLDSDGSFFLVSKLTVDKSRWQQGNVFSCSVMHEALHNHYTQKSLSLSPGK
# light: DIQLTQSPSFLSASVGDRVTITCKASQDVGSAVVWYQQKPGKAPKLLIYWASTRHTGVPSRFSGSGSGTEFTLTISSLQPEDFATYFCQQFTSYPTFGQGTKLEIKRTVAAPSVFIFPPSDEQLKSGTASVVCLLNNFYPREAKVQWKVDNALQSGNSQESVTEQDSKDSTYSLSSTLTLSKADYEKHKVYACEVTHQGLSSPVTKSFNRGEC
# B5: Cross317×PDL1 (bispecific antibody, human IgG1, kappa, L234A L235A)
# scFv: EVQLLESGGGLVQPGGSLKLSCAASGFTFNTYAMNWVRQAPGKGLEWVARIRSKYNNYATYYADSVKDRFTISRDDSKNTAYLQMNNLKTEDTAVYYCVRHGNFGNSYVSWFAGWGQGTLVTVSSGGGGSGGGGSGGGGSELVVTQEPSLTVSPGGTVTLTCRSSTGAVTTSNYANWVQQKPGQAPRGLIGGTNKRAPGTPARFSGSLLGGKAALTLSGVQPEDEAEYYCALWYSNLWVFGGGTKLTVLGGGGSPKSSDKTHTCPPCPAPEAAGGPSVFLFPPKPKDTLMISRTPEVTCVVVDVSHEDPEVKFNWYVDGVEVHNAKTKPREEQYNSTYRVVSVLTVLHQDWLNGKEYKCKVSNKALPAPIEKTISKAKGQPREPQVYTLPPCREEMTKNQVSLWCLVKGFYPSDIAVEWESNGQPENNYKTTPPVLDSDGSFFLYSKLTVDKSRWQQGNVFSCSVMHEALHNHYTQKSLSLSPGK
# heavy: B4 heavy
# light: B4 light
# How the values were obtained:
# CD3E&D protein [1] = target: T1, CD3E&D protein (UniProt P04234 22-105); assay: SPR (Biacore 8K), antibody on CM5 chip, CD3 E&D antigen as analyte; design: Fold change: reference not given here
# T1 construct: Purchased from Acro; also called CD3 E&D antigens; CD3E&D antigen protein
# T1 sequence (chain, as listed by the source limits assumed, chain 1 of 2): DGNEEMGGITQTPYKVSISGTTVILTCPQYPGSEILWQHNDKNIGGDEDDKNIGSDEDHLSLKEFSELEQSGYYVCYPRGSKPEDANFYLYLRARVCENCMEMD
# T1 sequence (P04234 22-105 limits assumed, chain 2 of 2): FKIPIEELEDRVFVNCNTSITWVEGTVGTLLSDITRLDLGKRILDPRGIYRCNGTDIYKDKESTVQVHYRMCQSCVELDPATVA
# Procedure: In a Biacore 8K (Cytiva) system, the antibody was diluted to 10 μg/mL in HBS-EP running buffer and coupled to a CM5 chip (Cytiva) at a flow rate of 10 μL/min.
# CD3 on CD8 T cells [2] = target: T2, CD3 on CD8 T cells (Homo sapiens (Human), UniProt P07766 23-207); assay: flow cytometry, CD8 T cells in PBMCs, binding ratio % [panel A]
# T2 construct: Native CD3 complex on CD8 T cells among PBMCs; also called T cells (PBMCs gated with anti-human CD8 antibody)
# T2 sequence (P07766 23-207 limits assumed): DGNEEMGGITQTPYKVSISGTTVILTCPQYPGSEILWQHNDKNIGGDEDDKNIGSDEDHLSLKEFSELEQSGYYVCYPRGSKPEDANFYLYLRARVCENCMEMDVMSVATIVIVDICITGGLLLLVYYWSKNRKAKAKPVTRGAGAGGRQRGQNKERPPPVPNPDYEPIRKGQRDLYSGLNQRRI
# Procedure: PBMCs were diluted with PBS to 2×10⁶/mL and added to a 1.5 ml EP tube at a volume of 100 μL/tube, 10 μL/tube of goat serum was added thereto and incubated at 4° C. for 30 min for blocking. […] 1 mL of PBS was added to the EP tube, followed by centrifugation at 3500 rpm for 5 min at 4° C. The supernatant was discarded, and the cells were washed again with PBS. After centrifugation, the supernatant was discarded, and the cells were resuspended with 100 μl/tube PBS. 1 μl/tube Alexa-647-labeled goat anti-human secondary antibody (purchased from Jackson lab) and 0.5 μl/tube PerCP-Cy5.5-labeled anti-human CD8 antibody were added and incubated at 4° C. in the dark for 30 min. The cells were washed twice with PBS, and the supernatant was discarded after centrifugation. The cells were resuspended with […] of PBS and assayed using the flow cytometry.
# CD3E&D protein [3] = target: T1, CD3E&D protein; assay: ELISA, coated CD3E&D protein, OD450 [panel C]
# Procedure: In this example, the binding properties of the parental antibody Cross3 and the CD3 affinity-reduced antibody (the production method and the amino acid sequences of the heavy and light chains were shown in Example 1) were detected by ELISA. The CD3E&D protein was coated onto a 96-well plate by the inventors, and the strength of the signal after the addition of the antibody was used to determine the binding properties of the antibody and CD3E&D.
# CD3E&D protein (purchased from Acro) was diluted to 2 μg/ml with PBS buffer, added to a 96-well plate at a volume of 100 μL/well, and placed at 4° C. overnight. The PBS buffer in the 96-well plate was aspirated, and the plate was washed 6 times with PBST (pH 7.2 PBS containing 0.1% Tween 20) buffer. Then, 200 μL/well PBS/10% BSA was added and incubated at 37° C. for 2 h for blocking. The blocking solution was removed, and the plate was washed six times with PBST. Then, the to-be-tested antibodies serially diluted with PBST/0.05% BSA, Cross3, Cross303, Cross307, Cross308, Cross309, Cross310, Cross311, Cross312, Cross313, Cross314, Cross316, Cross317, Cross318, Cross323, Cross325, Cross326, and control IgG1 (purchased from Bio-Tech) were added at 100 μL/well, and incubated at 37° C. for 1 h. The reaction system was removed, and the plate was washed 6 times with PBST. Then, the cells were incubated at 37° C. for 1 h with HRP (horseradish peroxidase)-labeled anti-human secondary antibody (Fab specific) (purchased from Sigma) serially diluted with PBST/0.05% BSA at 100 μL/well. The plate was washed six times with PBST, TMB (tetramethylbenzidine) was added at 80 μL/well and incubated at room temperature for 3 min. 4 M sulfuric acid was added at 80 μL/well to terminate the reaction. The absorbance was read at 450 nm using a microplate reader.
# CD3 on CD8 T cells [4] = target: T2, CD3 on CD8 T cells; assay: flow cytometry, CD8 T cells in PBMCs, binding ratio % [panel A]; remark: listed apart in the source
# Procedure: (1) PBMCs were diluted to 2×10⁶/ml with PBS and added to a 1.5 ml EP tube at 100 μl/tube, goat serum was added thereto at 10 μl/tube. The cells were blocked at 4° C. for 30 min. The serially diluted bispecific antibodies, Cross3×Trop2, Cross303×Trop2, Cross307×Trop2, Cross308×Trop2, Cross309×Trop2, Cross310×Trop2, Cross311×Trop2, Cross312×Trop2, Cross313×Trop2, Cross314×Trop2, Cross316×Trop2, Cross317×Trop2, Cross318×Trop2, Cross323×Trop2, Cross325×Trop2, Cross326×Trop2, Cross3×PDL1, Cross313×PDL1, Cross316×PDL1, Cross325×PDL1, and control hIgG1LALA (purchased from Bio-Tech) were added and incubated at 4° C. for 30 min. 1 ml of PBS was added to the EP tube, followed by centrifugation at 3500 rpm for 5 min at 4° C. The supernatant was discarded, and the system was washed again with PBS. After centrifugation, the supernatant was discarded, and the cells were resuspended with PBS at 100 μl/tube. 1 μl/tube Alexa-647-labeled goat anti-human IgG secondary antibody (purchased from Jackson lab) and 0.5 μl/tube PerCP-Cy5.5-labeled anti-human CD8 antibody were added and incubated at 4° C. in the dark for 30 min. The cells were washed twice with PBS. After centrifugation, the supernatant was discarded. The cells were resuspended with 200 μl/tube of PBS and assay is performed by flow cytometry.
# [5] = target: T3, PDL1 on A-375 melanoma cells, HCT-15 colorectal cancer cells and A549 lung cancer cells (UniProt Q9NZQ7 19-290, limits assumed); assay: flow cytometry, A549 cells, MFI [panel B]
# T3 construct: whole, on cells
# T3 sequence (Q9NZQ7 19-290 limits assumed): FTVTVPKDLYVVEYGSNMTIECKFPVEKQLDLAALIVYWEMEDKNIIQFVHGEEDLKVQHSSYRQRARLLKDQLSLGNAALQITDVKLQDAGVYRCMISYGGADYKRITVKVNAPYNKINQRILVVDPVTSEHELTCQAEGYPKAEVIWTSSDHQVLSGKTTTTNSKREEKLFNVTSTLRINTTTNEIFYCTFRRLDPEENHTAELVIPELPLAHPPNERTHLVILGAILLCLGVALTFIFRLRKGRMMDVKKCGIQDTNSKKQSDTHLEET
# Procedure: (2) The tumor cells were diluted to 2×10⁶/ml with PBS and added to a 1.5 ml EP tube at a volume of 100 μl/tube, and goat serum was added thereto at 10 μl/tube. The cells were blocked at 4° C. for 30 min. The serially diluted bispecific antibodies, Cross3×Trop2, Cross303×Trop2, Cross307×Trop2, Cross308×Trop2, Cross309×Trop2, Cross310×Trop2, Cross311×Trop2, Cross312×Trop2, Cross313×Trop2, Cross314×Trop2, Cross316×Trop2, Cross317×Trop2, Cross318×Trop2, Cross323×Trop2, Cross325×Trop2, Cross326×Trop2, and Cross3×PDL1, Cross303×PDL1, Cross307×PDL1, Cross308×PDL1, Cross309×PDL1, Cross310×PDL1, Cross311×PDL1, Cross312×PDL1, Cross313×PDL1, Cross314×PDL1, Cross316×PDL1, Cross317×PDL1, Cross318×PDL1, Cross323×PDL1, Cross325×PDL1, Cross326×PDL1, and control hIgG1LALA (purchased from Bio-Tech) were added and incubated at 4° C. for 30 min. 1 ml of PBS was added to the EP tube, followed by centrifugation at 3500 rpm for 5 min at 4° C. The supernatant was discarded, and the cells were washed again with PBS. After centrifugation, the supernatant was completely discarded, and the cells were resuspended with PBS at 100 μl/tube. Alexa-647-labeled goat anti-human IgG secondary antibody (purchased from Jackson lab) was added at 1 μl/tube and incubated at 4° C. in the dark for 30 min. The cells were washed twice with PBS, and the supernatant was completely discarded after centrifugation. The cells were resuspended with PBS at 200 μl/tube and assay was performed using the flow cytometry.
# PDL1 protein [6] = target: T4, PDL1 protein (UniProt Q9NZQ7 19-238); assay: ELISA, coated PDL1 protein, OD450 [panel A]
# T4 construct: Bought recombinant protein
# T4 sequence (Q9NZQ7 19-238 limits assumed): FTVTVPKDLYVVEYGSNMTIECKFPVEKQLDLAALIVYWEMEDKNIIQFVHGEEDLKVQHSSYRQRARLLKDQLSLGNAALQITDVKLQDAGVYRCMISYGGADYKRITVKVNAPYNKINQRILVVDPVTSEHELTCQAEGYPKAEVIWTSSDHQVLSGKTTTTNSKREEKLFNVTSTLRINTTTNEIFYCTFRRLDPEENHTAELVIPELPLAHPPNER
# Procedure: (§1) (3) PDL1 protein (purchased from Acro) was diluted to 2 μg/ml with PBS buffer, added to a 96-well plate at a volume of 100 μL/well, and placed at 4° C. overnight. The PBS buffer in the 96-well plate was aspirated, and the plate was washed 6 times with PBST (pH 7.2 PBS containing 0.10% Tween 20) buffer. Then, PBS/10% BSA was added at 200 μL/well and incubated at 37° C. for 2 h for blocking. The blocking solution was removed, and the plate was washed six times with PBST. Then, the to-be-tested bispecific antibodies serially diluted with PBST/0.05% BSA, Cross3×PDL1, Cross303×PDL1, Cross307×PDL1, Cross308×PDL1, Cross309×PDL1, Cross310×PDL1, Cross311×PDL1, Cross312×PDL1, Cross313×PDL1, Cross314×PDL1, Cross316×PDL1, Cross317×PDL1, Cross318×PDL1, Cross323×PDL1, Cross325×PDL1, Cross326×PDL1, and control IgG1LALA (purchased from Bio-Tech) were added at 100 μL/well, and incubated at 37° C. for 1 h. The reaction system was removed, and the plate was washed 6 times with PBST. Then, the cells were incubated at 37° C. for 1 h with HRP (horseradish peroxidase)-labeled anti-human secondary antibody (Fab specific) (purchased from Sigma) serially diluted with PBST/0.05% BSA at 100 μL/well. After the plate was washed six times with PBST, TMB (tetramethylbenzidine) was added at 80 μL/well and incubated at room temperature for 3 min. 4 M sulfuric acid was added at 80 μL/well to terminate the reaction. The absorbance was read at 450 nm using a microplate reader.
# PDL1 protein [7] = target: T4, PDL1 protein; assay: ELISA, coated PDL1 protein, OD450 [panel B]
# Procedure: as §1
Binder,Fold change (CD3E&D protein [1]),Kd (CD3E&D protein [1]) [nM],koff (CD3E&D protein [1]) [s⁻¹],kon (CD3E&D protein [1]) [M⁻¹ s⁻¹],EC50 (read off the curve) (CD3 on CD8 T cells [2]) [µg/mL],EC50 (read off the curve) (CD3E&D protein [3]) [µg/mL],EC50 (read off the curve) (CD3 on CD8 T cells [4]) [µg/mL],EC50 (read off the curve) [5] [µg/mL],EC50 (read off the curve) (PDL1 protein [6]) [µg/mL],EC50 (read off the curve) (PDL1 protein [7]) [µg/mL]
B1,19.9,3.28,0.0094,2.86e+06,~0.3,~0.03,–,–,–,–
B2,16.5,2.73,0.0386,1.41e+07,–,~0.03,–,–,–,–
B3,15.6,2.57,0.00366,1.42e+06,~0.3,~0.03,–,–,–,–
B4,–,–,–,–,–,–,~2,~1,~0.2,–
B5,–,–,–,–,–,–,–,~1,–,~0.2
